Measured values reported in the nanobody polyreactivity screen of Harvey et al. (2022).

Test: yeast display, Sf9 membrane polyspecificity reagent, FACS + sequencing; frameworks hold sequencing errors
Method in brief: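 Galactose induction of a Saccharomyces cerevisiae BJ5465 synthetic nanobody display library ran 36–48 hours. The cells were then stained for 1 hour at 4 °C with 10% biotinylated, detergent-solubilized Sf9 membrane reagent, pulled down on streptavidin microbeads and FACS-sorted into low and high (top ~1%) gates on expression and reagent-binding fluorescence. Labels for polyreactivity follow the gate of origin.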

Sequence	polyreactivity (PSR sort gate)
QVQLVESGGGLVQAGGSLRLSCAASGRTFDSYVMGWYRQAPGKERELVAAISSRGGTYYADSVKGRFTISRDNAKNTVYLQMNSLKPEDTAVYYCAARIYRKYYRYDYWGQGTQVTVSS	high polyreactivity
QVQLVESGGGLVQAGGSLRLSCAASGFIFNRYAMGWYRQAPGKERELVADITGGSTYYADSVKGRFTISRDNAKNTVYLQMNSQKPEDTEVYYCAADRYGFYLESDYWGQGTQVTVSS	low polyreactivity
QVQLVESGGGLVQAGGSLRLSCAASGFTFSRNTMGWYSQAPGKERELVARISASGGSTYYADSVKGRITISRDNAKNTVYLQMNSLKPEATAVYYCAAVYRRYGGSRYDYWGQGTQVTVSS	high polyreactivity
QVQLVESGGGLVQARGSLRLSCAASGSTFRFNAMGRYRQAPGKEREFVAAIRFTGGSTYYADSVKGRFTISRDYAKNTVYLQMNSLKPEDTAVYYCNNADEYSNVEYDYWGQGTQVTVSS	low polyreactivity
QVQLVESGGGLVQAGASLRLSCAASGSTFARYAMGWYRQAPGKERELVAAISSSGRTYYADSVKGRFTISRDNAKNSVYLQMNSLKPEDTAVYYCNAPVARGEASYYWGQGTQVTVSS	high polyreactivity
QVQLVESGGGLVQAGGSLRLSCAASGIIFRGNAMGWYRQAPRKEREFVAAISLRGSRTYYADSVKGRFTISRDNAKNTVYLQMNSLKPEDTAVYYCNARGGPSPFGSDYWGQGTQVTVSS	high polyreactivity
QVQLVESGGGLVQAGGSLRLSCAASGSTSRGNAMAWYRKSPGKERELVATISQSGGNTFYADSVKGRFTISLDNAKNTVYLQMNSLNPEDTAVYYCAAGRYWFAWYDYWGQGTQVTVSS	high polyreactivity
QVQLVESGGGLVQAGGSLRLSCAASGRTFASYAMGWYRPAPGKEREFVAVISVNGGNTYYADSVKGRFTISRDNAKNTVYLQMNSLKPEDTAVYYCARFDGWYQGYYPLYEFDYWGQGTQVTVSS	high polyreactivity
QVQLVESGGVLVQAGGSLRLSCAASGLICVPYSMGWYRQAPGKERELVAAISWRGGITYYADSVKGRFTISRDNAKNNVYLQMNSLKPEDTAVYYCAADGPYTGDGALDYWGQGTQVTVSS	high polyreactivity
QVQLVESGGGLVQAGGSLRLSCAASGRTFLLYAMGWYRQAPGKERELVAAIRSSTVSTYYADSVKGRFTISRDNAKNTVYLQMNSLKPEDTAVYYCAASRPKYGPSGVHYNYWGQGTQVTVSS	high polyreactivity
QVQLVESGGGLVQAGGSLRLSCAASGRTFRYYAMGWYRQARGKERELVAAISKTGGSTYYADSVKGRFTISRDNAKNTVYLQMNSQKPEDTAVYYCAAQSGWGYSTFYYWGQGTQVTVSS	high polyreactivity
QVLLVESGGGLVQAGGSLRLSCAASGLTFVYVMGWYRQAPGKERELVAGISYSAGRTYYADSVKGRFTISRDNAKNTVYLQMNSLKPEDTAVYYCAATKRGRPQRGYWGQGTQVTVSS	high polyreactivity
QVQLVESGGGLVQAGGSLRLSCAASGRTFTRYAMGWYRQSPGKERELVAAISTSGDSTYYADSVKGRFTISRDNAKNTVYLQMNSLKPVDTAVYYCNTYWTSEYDYWGQGTQVTVSW	low polyreactivity
QFQLVESGGGLVQAGGSLRLSCAASGRIWWNAKGWYRQAPGNEREMVAAIRWSGGIKRYADSVKGRFTISRDNAKNTVYLQMNSLKREDTAVYYCDARLGGSIRSKFDYWGQGTQVTVSS	high polyreactivity
QVQLVESGGGLVQAGGSLRLSCAASGFIFYTYAMGWYRQAPGKERELVAAIRRGGSTYYADSVKGRFTISRDNAKNTVYLQMNSLKPEDTAVYYCNARIPYKAKTNHFGYWGQGTQVTVSS	high polyreactivity
QVQLVESGGGLVQAGGSLRLSCAASGRTFEHYAMGWYRQAPGKERELVAAINSSDGGTYYADSVKGRFTISRDNAKNTVYLQMNSLKPEDTAVYYCAAAEFGSVPGYEMDYWGQGTQVTVSS	low polyreactivity

Sequence	polyreactivity (PSR sort gate)
QVQLVESGGGLVQAGGSLRLSCAASGSIFYSYAMGWYRQAPGKERELVAAISWDASTYYADSVKGRFTISRDNAKNTVYLQMNSLKPEDTAVSYCNADIPYYFVYDAYDYWGQGTQVTVSS	low polyreactivity
QVQLVESGGGLVQAGGSLRLSCAASGRIYSTNAMRWYRQAPGKEREFVAAIYWIGGSTYYADSVKGRFTISRDNAKNTVYLQMNSLKPEDTAVYYCAAGVYDDYPWSYDIFNLYDYWGQGTQVTVSS	low polyreactivity
QVQLVESGGGLVQAGGSLRLSCAASGRTFYYYAMGWYRQAPGKERELVAAISWSGGRTYYADSVKGRFTISRDNAKNTFYLQMNSMNPEDTAVYYCAADKYYSEFDYWGQGTQVTVSS	low polyreactivity
QVQLVESGGGLVQAGGSLRLSCAASGRTFIGYNMGWYRQAPGKERELVAAITWNGGRTYYADSVKGRFTISRDNAKNTVYLQMNSLKPEDTAVYYCAAPRRVVIGGGDYWGQGTQVTVSS	high polyreactivity
QVQLVESGGGLVQAGCSLRLSCAASGSIFGFYAMGWYRQAPGKERELVATIRSSGGNTYYADSVKGRFTISRDNAKNTVYLEMNSLKPEDTGVFYCAASFLIRAYVDRNDYWGLGTQVTVSS	low polyreactivity
QVQLVESGGGLVQAGGSLRLSCAASGSIFDNYALGWYRQAPGKERELVAAISWNGGDTTYADSVKGRFTISRDNAKNTVYLQMNSLKPEDTAVYYCAADLGYWVADFYWGQGTQVTVSS	high polyreactivity
QVQLVESAGGLVQAGGSLRLSCAASGSTFGPYAMGWYRQVPGKERELVAGISYGGGTTFYADSVKGRFTISRDNAKYTVYLQMNSLKPEDTAVYYCAATYRPNRYLEGYWGQGTQVTVSS	high polyreactivity
QVQLVESGGGLVQAGGSLRISCAASGSIFGSYTMGWYRQAPGKERELVAVINWSGDRTYYADSVKGRFTISRDNAKNTVYLQMNSLKPEDTAVYYCAARERAGYSRIRYNYWGQGTQVTVSS	low polyreactivity
QDQLVESGGGLVQAGGSLRLSCAASGSISSKNAMGCYRQAPGKEREFVAVISGTGGSTYYSDSVKGRFTISRDNAKNTVYLQMNRLKPEDTAVYYCAAAGSSIVSYGYSWTYGYWGQGTQVTVSS	low polyreactivity
QVQLVESGGGLVQAGGSLRLSCAASGRTFVVYAMGWYRQAPGKERELVAGSGSTFYADSVKGRFTISPDNAKNTVYLQMNSLKPEDTAVYYCAADHPALYSLDWDTAYDYWGQGTQVTVSS	low polyreactivity
QVQLVESGGGLVQAGGSLRLSCAASGSIFDENAMGWYRQAPGKERELVAAITGSGVRTYYADSVKGRFTISRDNAKNTVYLQMNSLKPEDTAVYYCNRVKSGSYKFGYWGQGTQVTVSS	high polyreactivity
QVQLVESGGGLVQAGGSLRLTCAASGGTFQYYSMGWYRQAPGKERELVAAITTSGGSTYYADSVKGRFTISRDNAKNTDYLQMNSLKPEDTAVYYCAAGRGYRGYVRYYYWGQGTQVTVSS	high polyreactivity
QDQLVESGGGLVQAGGSLRLSCAASGSNFAVYAMGWSRQAPGKERELVAAISYRGARTYYADSVKGRFTISRDNAKNTVYLQMNSLKPEDTAVYYCAAQGVTSPGVDSWGQGTQVTVSS	high polyreactivity
QVQLVESGGGLVQAGGSLRLSCAASGRTFSKNVMGWYRQAPGKEREFVARISDSGVGTYYADSVKGRFTISRDNAKNTVYLQMNSLKPEDTAVYYCAAAVWYRGWYRYDYWGQGTQVTVSS	low polyreactivity
QVQLVESGGGLVQAGGSLRLSCAASGRTFLWYAMGWYRQAPGKEREFVAAITSSGGDTYYADSVKGRFTISRDNAKNTVYLQMNSLKPADTAVYYCAARTRKWFDYAIHYYWGQGTQVTVSS	low polyreactivity
QVQLVESGGGLVQAGGSLSLSCASSGSTLTYYAMGWYRQEPGKEREFVAAIRWSSGNTYYADSVKGRFTISRDNAKNTVYLQMNSLKPEDTAVYYCAKERRYTGRRSYEYDYWGQGTQVTVSS	low polyreactivity
